In publication PMC8491169 (Experimental eye research, 2021):

Target: full-length recombinant human proteoglycan 4 (rhPRG4) (human, UniProt Q92954 25-1404)
Assay: SPR

B1: recombinant human matrix metalloproteinase 9 (rhMMP-9) (enzyme)
chain: APRQRQSTLVLFPGDLRTNLTDRQLAEEYLYRYGYTRVAEMRGESKSLGPALLLLQKQLSLPETGELDSATLKAMRTPRCGVPDLGRFQTFEGDLKWHHHNITYWIQNYSEDLPRAVIDDAFARAFALWSAVTPLTFTRVYSRDADIVIQFGVAEHGDGYPFDGKDGLLAHAFPPGPGIQGDAHFDDDELWSLGKGVVVPTRFGNADGAACHFPFIFEGRSYSACTTDGRSDGLPWCSTTANYDTDDRFGFCPSERLYTQDGNADGKPCQFPFIFQGQSYSACTTDGRSDGYRWCATTANYDRDKLFGFCPTRADSTVMGGNSAGELCVFPFTFLGKEYSTCTSEGRGDGRLWCATTSNFDSDKKWGFCPDQGYSLFLVAAHEFGHALGLDHSSVPEALMYPMYRFTEGPPLHKDDVNGIRHLYGPRPEPEPRPPTTTTPQPTAPPTVCPTGPPTVHPSERPTAGPTGPPSAGPTGPPTAGPSTATTVPLSPVDDACNVNIFDAIAEIGNQLYLFKDGKYWRFSEGRGSRPQGPFLIADKWPALPRKLDSVFEERLSKKLFFFSGRQVWVYTGASVLGPRRLDKLGLGADVAQVTGALRSGRGKMLLFSGRRLWRFDVKAQMVDPRSASEVDRMFPGVPLDTHDVFQYREKAYFCQDRFYWRVSSRSELNQVDQVGYVTYDILQCPED
B1 was tested, and the Kd was 42.1 nM, the koff was 0.000937 s⁻¹ and the kon was 22300 M⁻¹ s⁻¹.
